B1: single-chain recombinant form of human C1q globular region (C1q-scGR) (domain or fragment)
chain: KDQPRPAFSAIRRNPPMGGNVVIFDTVITNQEEPYQNHSGRFVCTVPGYYYFTFQVLSQWEICLSIVSSSRGQVRRSLGFCDTTNKGLFQVVSGGMVLQLQQGDQVWVEKDPKKGHIYQGSEADSVFSGFLIFPSAGSGKQKFQSVFTVTRQTHQPPAPNSLIRFNAVLTNPQGDYDTSTGKFTCKVPGLYYFVYHASHTANLCVLLYRSGVKVVTFCGHTSKTNQVNSGGVLLRLQVGEEVWLAVNDYYDMVGIQGSDSVFSGFLLFPDGSAKATQKIAFSATRTINVPLRRDQTIRFDHVITNMNNNYEPRSGKFTCKVPGLYYFTYHASSRGNLCVNLMRGRERAQKVVTFCDYAYNTFQVTTGGMVLKLEQGENVFLQATDKNSLLGMEGANSIFSGFLLFPDMEA
modifications: N-glycan (biantennary, sialylated) at Asn 124 of C1qA
notes: globular domain of human complement C1q chain A (gC1qA), residues 88-223 of mature C1qA; numbers count on: the mature protein; Gly-Ser-Gly linker between gC1qA and gC1qC; Gly-Ser-Ala linker between gC1qC and gC1qB; globular domain of human complement C1q chain B (gC1qB), residues 90-226 of mature C1qB; An insect-cell version (C1qA 85-223, melittin signal peptide) was also made but was low-yield …
B2: gC1qC module of C1q-scGR (residues 87-217 of mature C1qC) (domain or fragment, human, UniProt P02747 115-245, looked up)
chain: KQKFQSVFTVTRQTHQPPAPNSLIRFNAVLTNPQGDYDTSTGKFTCKVPGLYYFVYHASHTANLCVLLYRSGVKVVTFCGHTSKTNQVNSGGVLLRLQVGEEVWLAVNDYYDMVGIQGSDSVFSGFLLFPD
notes: globular domain of human C1q chain C; numbers count on: the mature protein; In the crystal it is joined on one chain between gC1qA and gC1qB: see m1; also called subunit C; source: 293-F cells, as part of the single chain C1q-scGR, purified
B3: recombinant human receptor for the globular heads of C1q (gC1qR) (receptor, UniProt Q07021 74-282, looked up)
chain: LHTDGDKAFVDFLSDEIKEERKIQKHKTLPKMSGGWELELNGTEAKLVRKVAGEKITVTFNINNSIPPTFDGEEEPSQGQKVEEQEPELTSTPNFVVEVIKNDDGKKALVLDCHYPEDEVGQEDEAESDIFSIREVSFQSTGESEWKDTNYTLNTDSLDWALYDHLMDFLADRGVDNTFADELVELSTALEHQEYITFLEDLKSFVKSQ
notes: the mature protein is recalled to begin at residue 74 of the precursor; also called receptor for C1q globular heads
B4: recombinant human calreticulin (natural protein, UniProt P27797 18-417, looked up)
chain: EPAVYFKEQFLDGDGWTSRWIESKHKSDFGKFVLSSGKFYGDEEKDKGLQTSQDARFYALSASFEPFSNKGQTLVVQFTVKHEQNIDCGGGYVKLFPNSLDQTDMHGDSEYNIMFGPDICGPGTKKVHVIFNYKGKNVLINKDIRCKDDEFTHLYTLIVRPDNTYEVKIDNSQVESGSLEDDWDFLPPKKIKDPDASKPEDWDERAKIDDPTDSKPEDWDKPEHIPDPDAKKPEDWDEEMDGEWEPPVIQNPEYKGEWKPRQIDNPDYKGTWIHPEIDNPEYSPDPSIYAYDNFGVLGLDLWQVKSGTIFDNFLITNDEAYAEEFGNETWGVTKAAEKQMKDKQDEEQRLKEEEEDKKRKEEEEAEDKEDDEDKDEDEEDEEDKEEDEEEDVPGQAKDEL
notes: human calreticulin, recombinant; also called CRT
B5: gC1qA module of C1q-scGR (residues 88-223 of mature C1qA) (domain or fragment, human, UniProt P02745 110-245, looked up)
chain: KDQPRPAFSAIRRNPPMGGNVVIFDTVITNQEEPYQNHSGRFVCTVPGYYYFTFQVLSQWEICLSIVSSSRGQVRRSLGFCDTTNKGLFQVVSGGMVLQLQQGDQVWVEKDPKKGHIYQGSEADSVFSGFLIFPSA
modifications: N-glycan at Asn 124
notes: globular domain of human C1q chain A; numbers count on: the mature protein; In the crystal it is joined on one chain with gC1qC (Gly-Ser-Gly linker) and gC1qB: see m1; also called subunit A; source: 293-F cells, as part of the single chain C1q-scGR, purified

Holding throughout (conditions): both partners purified
In assay [1] the target is B4. Kind of assay: SPR; Biacore 3000, 25°C; CRT, gC1qR and PTX3 amine-coupled on CM5; C1q samples flowed at 20 μl/min in 50 mM Tris-HCl, 150 mM NaCl, 2 mM CaCl2, 0.005% P20, pH 7.4; global fit 1:1 Langmuir (two-state model for C1q-CRT); apparent KD.
Assay [2] addresses B3. The assay is described as above.
Assay [3] concerns the target T1, recombinant human long pentraxin PTX3 (human, UniProt P26022 18-381).
T1 construct: human pentraxin 3, recombinant
The description is as above.

The target of assay [4] is T2, gC1qB module of C1q-scGR (residues 90-226 of mature C1qB) (human, UniProt P02746 117-253).
T2 construct: globular domain of human C1q chain B; numbers count on: the mature protein; In the crystal it is joined on one chain after gC1qC (Gly-Ser-Ala linker): see m1; also called subunit B; source: 293-F cells, as part of the single chain C1q-scGR, purified
Kind of assay: crystal structure; C1q-scGR crystallised with and without calcium in the reservoir; 1.35 and 1.55 Å.

The target in assay [5] is B5. Described as above.
The target of assay [6] is T3, globular regions of C1q prepared by collagenase digestion of serum-derived C1q (C1q-GR) (human, UniProt P02745 112-245; P02746 118-253; P02747 115-245).
T3 construct: globular region of human C1q chain A left after collagenase digestion; globular region of human C1q chain B left after collagenase digestion; globular region of human C1q chain C left after collagenase digestion; Heterotrimer of the three globular modules; Mw 48,000 used for concentration; also called serum-derived C1q-GR; plasma-derived C1q-GR; source: collagenase digestion of C1q purified from …
Kind of assay: SPR; Biacore 3000, 25°C; CRT, gC1qR and PTX3 amine-coupled on CM5; C1q samples flowed at 20 μl/min in 50 mM Tris-HCl, 150 mM NaCl, 2 mM CaCl2, 0.005% P20, pH 7.4; global fit 1:1 Langmuir (two-state model for C1q-CRT); apparent KD.

Assay [7] deals with T4, C1q purified from human serum (full-length C1q) (human, UniProt P02745 23-245; P02746 28-253; P02747 29-245).
T4 construct: also called intact C1q; native C1q; source: purified from human serum; copies: 6 + 6 + 6
Described as above.

The text below walks through data of article PMC4774423 (Frontiers in Immunology, 2016).

T1 sequence (P26022 18-381): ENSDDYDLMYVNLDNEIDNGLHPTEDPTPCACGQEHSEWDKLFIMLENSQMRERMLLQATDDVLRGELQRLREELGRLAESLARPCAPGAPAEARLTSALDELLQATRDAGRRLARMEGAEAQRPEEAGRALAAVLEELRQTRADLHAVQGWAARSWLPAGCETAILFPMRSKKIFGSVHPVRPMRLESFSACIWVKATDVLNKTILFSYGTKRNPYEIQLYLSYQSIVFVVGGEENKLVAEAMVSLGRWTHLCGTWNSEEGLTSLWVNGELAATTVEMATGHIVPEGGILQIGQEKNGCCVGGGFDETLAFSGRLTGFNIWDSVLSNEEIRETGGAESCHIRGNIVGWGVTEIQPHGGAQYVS

Take B1: in assay [1], the Kd stood at 494 nM, the koff was 0.00136 s⁻¹ and the kon stood at 2800 M⁻¹ s⁻¹. In assay [2], the Kd is 304 nM, the koff turned out to be 0.00067 s⁻¹ and the kon was 2220 M⁻¹ s⁻¹. Moreover, in assay [3], the Kd is 444 nM, the koff is 0.000552 s⁻¹ and the kon came out at 1320 M⁻¹ s⁻¹.

In the case of B2, the binding result in assay [4] and in assay [5] was “binds” in each case.

As for B3, in assay [6], the Kd is 344 nM, the koff came to 0.00149 s⁻¹ and the kon came to 4400 M⁻¹ s⁻¹. In assay [7], the Kd was determined as 7.2 nM, the koff is 0.000457 s⁻¹ and the kon was determined as 68000 M⁻¹ s⁻¹.

In the case of B4, in assay [6], the Kd came out at 510 nM, the koff turned out to be 0.00234 s⁻¹ and the kon is 4630 M⁻¹ s⁻¹. In addition, the Kd in assay [7] is 590 nM.

In the case of B5, the binding result in assay [4] is “binds”.
